# Assay results published in the DeepSol protein solubility set.
# Test: soluble on expression in E. coli; label from the status in PepcDB or PDB records
row,Sequence,soluble on expression in E. coli
1,MRLHARSPRVESGRYGWLLDSVVDERRRHRMSFLRLGRNGMSEFERPTDHSLGRCGQVLCVTRGVSSRAPRRSAETGVSVATPATVAAHISVWQYEAMSAYAALAEPHRRQILDLLREGERPAGELVERIALSQPGVSKHLKVLREAGLVVVRADGKQRLYALRPEPLAEVDRWLEPYRAYWSRRLDALERHLEENP,not soluble
2,MGSDKIHHHHHHMVIELKNEKVTVQFKEFGGALSSIKDQDGIEYLWQGNPAYWSSQAPVLFPICGSLRNDKGIYTSKKHSHRYGSIPRHGLVRKKNFRFEQLGKDSVVFTITPDKEMLMQYPYHFELKIIYTLKHTTIRTEYQVINKEKESIMPYFIGGHPGLNCPLFAGDRYEDYYLEFEKEETCTVPKSFPDTGLLDLQDRKIFLKGQKYLDLDYSLFTHDAITLDNLQSRSVSLRSKNHGGGLRLDFADFPYLILWSTANKSPFIALEPWSGLSTAVDESDYFEEKRNVSFVEPGQFDRNYFDITVL,not soluble
3,MSSVTAPRLDRATMGRKGGQKAAERWKTDPESDYATAQRETLAAANKRGARQGTGTRGRVLAVYSQTLVDTGEVPTARQIAGEIGITKRMVNIHLKELRDAGLVEQGLRDIWACGRNLGGFPV,not soluble
4,MNVLRSGIVTMLLLAAFSVQAACTWPAWEQFKKDYISQEGRVIDPSDARKITTSEGQSYGMFSALAANDRAAFDNILDWTQNNLAQGSLKERLPAWLWGKKENSKWEVLDSNSASDGDVWMAWSLLEAGRLWKEQRYTDIGSALLKRIAREEVVTVPGLGSMLLPGKVGFAEDNSWRFNPSYLPPTLAQYFTRFGAPWTTLRETNQRLLLETAPKGFSPDWVRYEKDKGWQLKAEKTLISSYDAIRVYMWVGMMPDSDPQKARMLNRFKPMATFTEKNGYPPEKVDVATGKAQGKGPVGFSAAMLPFLQNRDAQAVQRQRVADNFPGSDAYYNYVLTLFGQGWDQHRFRFSTKGELLPDWGQECANSH,soluble
5,SEGSGEQPGPQPQHPGDHRIRDGDFVVLKREDVFKAVQVQRRKKVTFEKQWFYLDNVIGHSYGTAFEVTSGGSLQPKKKREEPTAETKEAGTDNRNIVDDGKSQKLTQDDIKALKDKGIKGEEIVQQLIENSTTFRDKTEFAQDKYIKKKKKKYEAIITVVKPSTRILSIMYYAREPGKINHMRYDTLAQMLTLGNIRAGNKMIVMETCAGLVLGAMMERMGGFGSIIQLYPGGGPVRAATACFGFPKSFLSGLYEFPLNKVDSLLHGTFSAKMLSSEPKDSALVEESNGTLEEKQASEQENEDSMAEAPESNHPEDQETMETISQDPEHKGPKERGSKKDYIQEKQRRQEEQRKRHLEAAALLSERNADGLIVASRFHPTPLLLSLLDFVAPSRPFVVYCQYKEPLLECYTKLRERGGVINLRLSETWLRNYQVLPDRSHPKLLMSGGGGYLLSGFTVAMDNLKADTSLKSNASTLESHETEEPAAKKRKCPESDS,soluble
6,MAHHHHHHSLIKTEFKGNNIPYEYAAGADVSDSINGNPIKSFPFEVIELPEGTKYLAWSLIDYDAIPVCGFAWIHWSVANVSVSGNSISIKADLSRTKGDYVQGKNSFTSGLLAEDFSEIENHYVGPTPPDQDHQYELTVYALDHSLNLKNGFYLNEFLKEVNQHKIDQTSINLIGRKEG,not soluble
7,MSLSEEILINITPMESRVAVVENGVLQEVHVERTQRRGIVGNIYKGRVVRVLPGMQAAFVDIGLERAAFIHAAEISNREGSAVESISALVHEGQALVVQVTKDPIGTKGARLTTHLSIPSRYLVYMPRTSHVGISLRIEDEVERERLKKVVADCVAAEGIEGQGGFILRTAAEGAGEDEILADIRYLRRLWDQIAAQIQTVGAPSVIYEDLSLAIRTLRDLVNPRIEKIRIDSRENFQKITSFVEELMPEISDRLEHYPGERPIFDLYGVEDEIQKALERKVLLKSGGYLIVDPTEAMTTIDVNTGAFVGHRNLEETIFKTNLEAATAIARQLRLRNLGGIIIIDFIDMEDEEHRRQVLRTLEKQLERDHAKTNIIGITELGLVQMTRKRTRESLVQILCEPCPCCQGRGMLKTAETTCYEIFREILREARAYQADSYLVLANQKVVDRLLDEESGNVADLEAFIGRTIKFQVEAMYSQEQYDVVLLEGGSHHHHHH,soluble
8,MGSDKIHHHHHHMSQVVIAVLANAGGVGKSTLSVHLAYEVSRRKLKVALLDLDPQRSLDVFCGLEAAEAEKTMFKVLSKDFIGDWALASAWDEPRIEVCQGHPLLAEIANELVIRKRGEYMLADRLQKYSLPHDLVIVDCPATLGMLNVNALAAATHILVPIQLEMKAISGSAELVEWCMNTSEELQLTPKPQILGFVPSMYDETVAMHRQYHSQLPEIALQLDIKLYPKIRSSNEFKNASAHGLPLHKYRNKHPACKDFKQIADDVIQLIKNK,not soluble
9,MENLTVTGLVRLIGAGATMIYVVTDNERRTEQIATQAAARLKGAGSPYVWTCTEGFSRDGAVVEGIDDPVAAVGFALAQPGPLLFLFKDLPWFWGDNPYLIRALKDFAMRAKAKAIVVLGQQEGIPAALREEFVILQQGLPAMEEIKAFFEQARARDPQLAQACQERPGLLNDLVVAAQGLDLLDVERGMRGARAAGEAGGEGLVRSIFETKRAIIRTGGIMEFVANDVTPDQVGGMENLKQWMARREQAFGLEGISSGANLPKGVLMMGIAGCGKSLFVKAIAATWRLPLIRLDMAAVYDGSYGTPESSLRKAFRTAEAVAPCVLWIDEIEAGISTQGFKAEGGPASRILGSFLTWMQEKRAPVFVAATANAIEMLPAEIIRKGRFDEIFYIGLPETKGREEIFRIHLTRRKIGLSAFDVPLLAGSTKGFSGAEIEQAVQAAAFEALTGKRPMTQQDLMAAISRTVPLSVTMAEQIKKIEAWAFKRAVPA,soluble
10,MSLRKHCIAIGGGGWMMGENPSPLYQYILSLSGKENPNICFLPTATGDADEVIERFYNAKLSENVTHFPLFKFDAGWKETLFEQDIIYVGGGNTRSMLAIWREWGIDRILKQCYEQGIIICGMSAGAICWFEFAVTDSDPEAYQVMRCLGLIDGLAAAHFSHVGEKFEVFQAFARSQPSITCYGIHDYAALHFVDGKLLATVTSFPDAGVLVKTGNDENILRGEGHHHHHH,soluble
11,MKVIEFHQVSKWYGQFQALKSISLTVNKGEIVVICGPSGSGKSTLIRTVNGLESIDSGEIIVLPELDERTRRSGKIGMVFQHFNLFPHLTVLENLTLAPIRTLKLSAQEAKERAYHFLQRVKITDQTHKYPIQLSGGQQQRVAIARSLCMQPEILLFDEPTSALDPETINEVLEVMVDLAQDGITMMCVTHEMGFARKVAHRVMFMDEGEILEVGSPEQLFQNPTHPRTQQFLNQILSH,not soluble
12,MNALKQAVRTYARCHANRDGLAVTTVPGLRTMCVEDPAGDLHSVYRPLVCFVLQGAKRMIVGSEERVFYGGQSVIVAADMPVVGRIVEASSGAPYLAIAVELEMALLREVAAQIGDTCSLRSSGMQTLFAEDTEGAMLDCASRLMHLLDRPDAVPILRPGIMRELHYWLLSGPHGPALRTLADPDSYAGRLAAAIAILRTEYRSRVPVERLAAAAAMSLTAFHKHFKMMTSLTPGQYQKRLRLIEARRLMLDQGFSASNAAFEVGYESVSQFTREYGRLFNMPPKQDALRARAISSIFKHSQADALGAELH,not soluble
13,MSLDLRLEELAILGVKLPHDFSPEVQGPLFSSQGLNNISDIAHLSNNENLSYLMTATIENNKVKLDHFVQFLPMIMKFGNSEQRFQLQPKKDTNAPKPTTNKSRGYAKPKRGFGFVDLDDAPSSQPEPSDAEITRNNFDLEQTYWSKNFVNITRVGSRTILEPAIGASLTTYNSGQCYILRLPRKLLISTNTEWPDFISRKIELDGKPLPIPSDNLTEISSREDIISCSYVNDKIDSNWGAVVSLSKSSSENLKVVGIEKQSMVLRESTPMNEGHHHHHH,soluble
14,MAHHHHHHMSGRPEEGLYGNVESQSSNVSQGGRRRTRSEFEGDTDHSSATRIRLEGMYRPQWTMSSTVKDILLEGSTLRTDMKLNEFIRSNLDEEWVVERNGNVIMEAFVQEPDAYVQDQELLRRIINLPAYQALEERKILLEATYKLHHEGVYFLRQWGEHEGKDTVSSHARGKLNGVLTGIEIEEKERREAEEREKARREEEARRDAEEEKARREEQINFNLTLSIKDAIFQGRARVYKMKLNRFLKMELDGRGVADTNRRVLLKEFFKDPTRYVRDAGVLNEIQASDAYLMAKRAVREEMDMEEDIRKLQYKHLRTLLGWSIASAEIRASVREITKGFLDAVLEELRKPTTTIAR,not soluble
15,MSLKIKVGLIFSGIACLFLTACVNQVKQNTTFENTLTQKYCGDDFFNQNLEKIKKNDDVIYTGLNAGLIARNCGDFNKSNVFFDAVEESYKYDVDLENVSPKAAKFIGTTLLNDNIVDYDGSLYERIMVNIYKALNYMEEDDYENARVEFNRVLMRQDKAKEYFAKEIEKNRADLDKAKEDKNYDKNMNENSKVIEAQYDNLFKEFDTTKNFINPYATYLASIFFFMDKDYRKAADLFREVAIIYPKNKTIKKEAKIFKEYATKIKVKKAKKYVFVVYENGFGVVKDEFALTLPFIVDKKIISTNIALQTLKKREASFANLNINGQNTNDFVDLDNIVATEFKINMPAMIAKALAQTIIKTTLNVAVANNDSTGGWLSLATAVATAATNKADVRSWRGLPKSIAIATIENDGNLEIKDPQGNILFQKSLDKNKNALVIVRSFAPYLPASVAIMEKEGHHHHHH,not soluble
16,MGSDKIHHHHHHMTNPTLAPQSDEYQQIHNGIVQLLDTARTQTVRSINTIMTATYWEMGRRIVEFEQGGEARAAYGEQLIDRLSQDLSQRYKRGFSASNLWQFKKFYLYFQKIEILQTVSGESLHLAQLAKSFPLPWSAYVRLLSVKNPNARTFYEKETLRNGWSVRQLDRQIATQFYERTLLSHDKSAMLQQPAPAEPNVLPEQAIRDPFILEFLNLKDEYSESDLEDALLSHLMDFMLELGDDFAFVGRQRRLRIDDSWFRVDLLFFHRRLRCLLLVDLKVGKFGYADAGQMNMYLNYAKEHWTMPGENPPVGLVLCAGKGAGEAHYALTGLPNTIMASEYKVQLPDEKLLTDELIRSQTMLETQLTRGGSLTTEKN,not soluble
17,MSGSVSGCGSGGCSIVWFRRDLRVEDNPALAAAVRAGPVIALFVWAPEEEGHYHPGRVSRWWLKNSLAQLDSSLRSLGTCLITKRSTDSVASLLDVVKSTGASQIFFNHLYDPLSLVRDHRAKDVLTAQGIAVRSFNADLLYEPWEVTDELGRPFSMFAAFWERCLSMPYDPESPLLPPKKIISGDVSKCVADPLVFEDDSEKGSNALLARAWSPGWSNGDKALTTFINGPLLEYSKNRRKADSATTSFLSPHLHFGEVSVRKVFHLVRIKQVAWANEGNEAGEESVNLFLKSIGLREYSRYISFNHPYSHERPLLGHLKFFPWAVDENYFKAWRQGRTGYPLVDAGMRELWATGWLHDRIRVVVSSFFVKVLQLPWRWGMKYFWDTLLDADLESDALGWQYITGTLPDSREFDRIDNPQFEGYKFDPNGEYVRRWLPELSRLPTDWIHHPWNAPESVLQAAGIELGSNYPLPIVGLDEAKARLHEALSQMWQLEAASRAAIENGSEEG,soluble
18,NQIYLPMVDFRPFKVGKSLRELTQAPAGAPEDVYEYVFVYEKNGKRQEFDMDHLPDDSWTYVDRHEKLIKKGYTPPVTDFLLLRGGEDVTSEIVNKKGITLLLLSPDWENASDDKMDNISEMYDYAQEHAWDFYGVSASTSDDISTWRYNTGADYPMLFLDAVTVKTITRGNPSLVILRDGVIRGKVSDANFPGVGQAQAFFDRYIGNELYQPS,not soluble
19,MGSDKIHHHHHHMNKPKVPPTITEQPDEQTFAYLLAHIQQTRQQVFAQVNTALIELYWSVGKTISEKVVSAGWGKGVVKQLAAYLASQAPDIKGFSDKNLWRMKQFYETYQHDIKLASLVRVLPWTHNTIIFSRCKSNREREHYLMLVQRERLSSRELERHINAAHFERSLIEQPKLSAVLRQSHPIANTIFKDNYTLEFLGLPSSHSESDLQKAIINNLKTFILELGKDFIFIDEEYRLQVGNQDFYIDLLFFHRGLAALVAFELKIGKFSPQHLGQLDFYLEALDRDVKKPHENPSIGVLLCRDKDDEVVEYALSRNLSPTLVAQYQCQMPDKQLLQAKLHQLLQDLPAQDELASQHMTEQMPRQGEYNE,not soluble
